{"source": "patent US10509035B2", "about": "“Antibodies, antibody drug conjugates and methods of use” (GAMAMABS PHARMA, priority 2015, dated 2019)", "key": {"[1]": {"test_system": "COV434 AMHR-II transfected cell line", "assay": "Antibody internalization (flow cytometry and immunofluorescence imaging)", "format": "cell-based", "description": "(§1) Antibody mediated internalization were assessed by flow cytometry analysis and by immunofluorescence imaging. Flow cytometry experiments was done on the two expressing AMHR-II cell lines: COV434 WT with low level of expression and COV434-AMHR-II transfected cell line with high level of expression. Briefly, 5×10^5 cells were incubated with 3C23K at 10 μg/ml and incubated 30 min at 4° C. After washes, DMEM/GlutaMax (Gibco) medium, cold or pre-warmed at 37° C., was added and incubated at 4° C. or 37° C. at different time points (15 min, 30 min and 60 min). Phycoerythrin-conjugated anti-human IgG antibody (1:200, Beckman-Coulter) was added for 30 min at 4° C. FACS analysis of the resuspended cells was done on a BD Accuri™ C6 flow cytometer (BD Bioscience). As depicted in FIGS. 9A and 9B, the internalization of the 3C23K observed at 37° C. is fast whatever the level of AMHR-II expression. For immunofluorescence imaging experiments, COV434 AMHR-II transfected cell line were grown on poly-D lysine coated glass coverslips overnight at 37° C. at a density of 75000 cells/cm^2. Cells were incubated with 3C23K directly labelled with Alexa Fluor 488 for 1H30 at 4° C. to carry out surface labelling. Cell surface bound antibodies were allowed to internalize by incubating cells in prewarmed medium at 37° C. At appropriate time points, coverslips were removed and cells were washed in PBS, then fixed in formaline (4%, 30 min at room temperature) and permeabilized (Triton X-100 0.5%, 5 min at room temperature). Nuclei were stained with DAPI (4′,6-diamidino-2-phenylindole) and coverslips were mounted on microscope slides and imaged with Leica DM5000 microscope (Leica Microsystems). Internalization was quantified by counting the number of visible vesicles in cell section at different incubation time using Image J software.\nThe internalization capacity of the K4D24 and 6C59 variants was assayed by fluorescence cytometry analysis in the same manner as in Example 8 except for the concentrations used. Due to their strong binding, K4D24 and 6C59 were used at 0.5 μg/ml and 0.3 μg/ml respectively whereas the 3C23K was used at 10 μg/ml."}, "[2]": {"molecular_target": "T1, AMHR2 receptor expressed at the surface membrane of the COV434 AMHR2 transfected cell line (Homo sapiens, UniProt Q16671)", "T1 construct": "expressed in transfected cells; host or cells: COV434", "T1 sequence (Q16671 18-573)": "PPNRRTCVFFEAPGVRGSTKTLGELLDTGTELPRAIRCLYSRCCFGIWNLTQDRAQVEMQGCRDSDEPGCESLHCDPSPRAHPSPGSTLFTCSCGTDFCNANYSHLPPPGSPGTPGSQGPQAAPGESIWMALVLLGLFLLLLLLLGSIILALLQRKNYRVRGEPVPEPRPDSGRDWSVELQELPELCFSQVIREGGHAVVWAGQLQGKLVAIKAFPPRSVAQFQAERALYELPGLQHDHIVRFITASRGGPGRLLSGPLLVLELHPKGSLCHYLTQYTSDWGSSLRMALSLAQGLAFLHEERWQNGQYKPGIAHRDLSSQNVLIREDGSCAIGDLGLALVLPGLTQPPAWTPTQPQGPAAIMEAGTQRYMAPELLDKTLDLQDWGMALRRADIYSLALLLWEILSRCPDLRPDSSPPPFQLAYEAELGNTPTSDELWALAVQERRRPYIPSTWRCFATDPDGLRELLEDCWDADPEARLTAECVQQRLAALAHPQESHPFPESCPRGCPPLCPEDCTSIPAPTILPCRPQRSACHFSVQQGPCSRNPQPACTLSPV", "assay": "FACS binding to AMHR-II receptor at the surface of the COV434 AMHR-II transfected cell line", "settings": "concentrations 0.5 to 75 μg/ml, Hill slope fit (Example 4)", "description": "The COV434 AMHR-II transfected and the COV434 WT cell lines were maintained in DMEM/GlutaMax (Gibco) supplemented with 10% FBS, penicillin 100 U/ml and Streptomycin 100 μg/ml. Geneticin at 666 μg/ml was added for the COV434 AMHR-II transfected cell line. […] After washes, Phycoerythrin-conjugated anti-human IgG antibody (1:200, Beckman-Coulter) was added for 1 hour at room temperature. FACS analysis of the resuspended cells was done on a BD Accuri™ C6 flow cytometer (BD Bioscience).\nThe binding capacity of the anti-AMHR-II antibody variants K4D24 and 6C59 to the AMHR-II expressing cell lines was evaluated by flow cytometry analysis in the same manner as example 4. FACS analysis with COV434-AMHR-II transfected cell line is described in FIG. 16. The Kapparent of the K4D24 and 6C59 variants were improved by a factor of 20 and 40 fold respectively as compared to the 3C23K (0.098 μg/ml and 0.05 μg/ml versus 2.2 μg/ml). The binding capacity of these variants was also assayed on the low expressing AMHR-II COV434 WT cell line. In this setting the binding was evaluated with three concentrations of variants (25, 10 and 5 μg/ml) and three concentrations of 3C23K (50, 25 and 10 μg/ml)."}, "[3]": {"test_system": "COV434 AMHR-II transfected cell line", "assay": "Co-localization with the lysosomal marker LAMP-1 (immunofluorescence)", "format": "cell-based", "description": "as §1, with “Cell surface bound antibodies were allowed to internalize by incubating cells in prewarmed medium at 37° C. At appropriate time points, coverslips were removed and cells were washed in PBS, then fixed in formaline (4%, 30 min at room temperature) and permeabilized (Triton X-100 0.5%, 5 min at room temperature). Nuclei were stained with DAPI (4′,6-diamidino-2-phenylindole) and coverslips were mounted on microscope slides and imaged with Leica DM5000 microscope (Leica Microsystems).” left out, “software. […]” for “software.”"}, "[4]": {"test_system": "COV434 WT cell line", "assay": "Antibody internalization (flow cytometry)", "format": "cell-based", "settings": "10 μg/ml, low level of AMHR-II expression", "description": "as §1, with “Cell surface bound antibodies were allowed to internalize by incubating cells in prewarmed medium at 37° C. At appropriate time points, coverslips were removed and cells were washed in PBS, then fixed in formaline (4%, 30 min at room temperature) and permeabilized (Triton X-100 0.5%, 5 min at room temperature). Nuclei were stained with DAPI (4′,6-diamidino-2-phenylindole) and coverslips were mounted on microscope slides and imaged with Leica DM5000 microscope (Leica Microsystems).” left out"}, "[5]": {"molecular_target": "T2, FCGRIIIA receptor (CD16a) (Homo sapiens, UniProt P08637)", "T2 construct": "purchased R&D System", "T2 sequence (P08637 17-208 limits assumed)": "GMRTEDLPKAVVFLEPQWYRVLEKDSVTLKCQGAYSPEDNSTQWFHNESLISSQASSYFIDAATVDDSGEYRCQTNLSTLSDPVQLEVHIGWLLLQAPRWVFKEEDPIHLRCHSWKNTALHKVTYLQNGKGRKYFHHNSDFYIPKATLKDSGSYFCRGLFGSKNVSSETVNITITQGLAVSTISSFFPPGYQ", "assay": "ELISA binding to the extracellular domain of CD16a", "settings": "200 ng per well CD16a, 0.3 to 5.0 μg/ml", "description": "The binding of anti-AMHR-II antibodies to the extracellular domain of CD16a was evaluated by ELISA. ELISA plates (96 wells, Maxisorp, NUnc) were coated overnight at +4° C. with 200 ng per wells of CD16a (R&D System) or an irrelevant protein (NS, non-specific binding). The experimental protocol was identical to that described for example 1. The unconjugated and ADC 3C23K antibodies were tested at concentrations from 0.3 to 5.0 μg/ml."}, "[6]": {"molecular_target": "T3, AMHR-II receptor protein (AMHR-II-ECD-Fc) (Homo sapiens, UniProt Q16671)", "T3 construct": "Fc (C); purchased R&D System", "T3 sequence (Q16671 18-149 limits assumed)": "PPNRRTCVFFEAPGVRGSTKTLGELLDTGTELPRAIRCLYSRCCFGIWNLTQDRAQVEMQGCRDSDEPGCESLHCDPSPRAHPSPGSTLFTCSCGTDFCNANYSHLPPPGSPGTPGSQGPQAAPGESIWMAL", "assay": "Binding kinetic parameters by surface plasmon resonance (Bia3000) on immobilized AMHR-II-ECD-Fc", "settings": "SPR, 25° C., Langmuir 1:1 fitting model", "description": "Immobilization of AMHRII was performed on a Bia3000 apparatus at 25° C. in HBS-EP (HEPES 10 mM, NaCl 150 mM, EDTA 3 mM, P20 surfactant 0.005%) at […] flow rate on CM5 sensor chip using EDC/NHS (1-Ethyl-3-3-dimethylaminopropyl carbodiimidehydrochloride) activation according to the manufacturer's instructions (GEHealthcare). Briefly, carboxyl functions of CM5 sensor chip were activated with 0.4M EDC/0.1M NHS during 7 min. A solution of AMHR-II-ECD-Fc (R&D System) at 2.5 μg/ml in sodium acetate buffer was injected during 12 min. An injection of 1M ethanolamine hydrochloride was used to neutralize the activation. Recombinant AMHR-II was covalently immobilized at 1270 RU level. A control reference surface was prepared using the same chemical treatment of without injection of AMHRII.\nAntibodies at different concentrations (from 0.5 nM to 133 nM) were injected during 180s on AMHRII-coated flowcell and the control flowcell. After a dissociation step of 400s in running buffer, sensor surfaces were regenerated using 5 μl of Glycine-HCl pH1.7. All the sensorgrams were corrected by subtracting the low signal from the control reference surface. Kinetic parameters were evaluated from the sensorgrams using a Langmuir 1:1 fitting model on the BiaEvaluation 4.2 software."}, "[7]": {"test_system": "COV434 AMHR-II transfected cell line", "assay": "Apoptosis induction, Annexin V-FITC / propidium iodide flow cytometry", "format": "cell-based", "settings": "250 μg/ml, 48 hours", "description": "The percentage of apoptotic was assessed using the Annexin V-Fluos Staining kit (Roche) according to the manufacturer's protocol. […] Carboplatin (300 μM) was used as positive control. After washes and centrifugation, the cell pellets were resuspended in the Annexin-V-Fluorescein and propidium iodide reagents. Following 10 minutes incubation at room temperature, samples were analyzed by flow cytometry on a BD Accuri™ C6 flow cytometer (BD Bioscience)."}}}
{"molecule": "3C23K (antibody, V domains shown, 3C23K/3C23; 3C23K) VH: QVRLVQSGAEVKKPGASVKVSCKASGYTFTSYHIHWVRQAPGQRLEWMGWIYPGDDSTKYSQKFQGRVTITRDTSASTAYMELSSLRSEDTAVYYCTRGDRFAYWGQGTLVTVSS VL: DIQMTQSPSTLSASVGDRVTITCRASSSVRYIAWYQQKPGKAPKLLTYPTSSLKSGVPSRFSGSGSGTEFTLTISSLQPDDFATYYCLQWSSYPWTFGGGTKVEIK", "values": [{"measurement": "internalization observed at 37° C.", "setting": "[1]; flow cytometry, 10 μg/ml, high level of AMHR-II expression", "result": "fast"}, {"measurement": "time of maximum of intracellular location", "setting": "[1]; immunofluorescence imaging, 3C23K Alexa Fluor 488, 37° C.", "result": 60, "unit": "min"}, {"measurement": "KDapparent", "setting": "[2]", "result": "~3.1", "unit": "µg/mL"}, {"measurement": "detection in the lysosomal compartment (colocalization with LAMP-1)", "setting": "[3]", "result": "rapidly detected in the lysosomal compartment"}, {"measurement": "internalization observed at 37° C.", "setting": "[4]", "result": "fast"}, {"measurement": "binding to CD16a", "setting": "[5]", "result": "very high affinity"}, {"measurement": "KA", "setting": "[6]", "result": "1.81e+10", "unit": "M⁻¹"}, {"measurement": "Kd", "setting": "[6]", "result": 0.05, "unit": "nM"}, {"measurement": "ka", "setting": "[6]", "result": 125000, "unit": "M⁻¹ s⁻¹"}, {"measurement": "kd", "setting": "[6]", "result": "6.93e-06", "unit": "s⁻¹"}, {"measurement": "apoptosis induction", "setting": "[7]", "result": "did not induce any apoptosis"}]}
